Measured values taken from patent publication US11485776B2, “Antibodies against infectious diseases” (priority 2015, dated 2022).
Entries after “also recorded” stand apart in the source; their conditions may differ.

Assays:
CaENO1 = molecular target: T1, CaENO1 (Candida albicans, UniProt P30575); type: binding, C. albicans; conditions: free form vs fixed form recombinant CaENO1
T1 construct: using full-length CaENO1 (1323 bp) as template; His (N); made in house; host or cells: E. coli BL21
Procedure: (A) Purified CaS1 scFv was used to recognize recombinant CaENO1 protein. The CaS1 scFv were used as primary antibody with series dilution. The goat anti-chicken light chain IgG was used as secondary antibody. The HRP conjugated donkey anti-goat IgG was used to decet. (B) OD value was calculated into percentage. […] The goat anti-chicken light chain IgG was used as secondary antibody. The HRP conjugated donkey anti-goat IgG was used to detect. (D) We calculated OD value into percentage.

hENO1 = molecular target: T2, hENO1 (Homo sapiens, UniProt P06733); test: Western blot on purified human ENO1 protein; type: binding
T2 construct: His; made in house; host or cells: E. coli BL21 (by 'in the same way')
Source text: Lane M contained protein markers.
The ImageQuant LAS4500 was used for ECL intensity detection.

[1] = molecular target: T3, alpha-enolase on the surface of C. albicans (Candida albicans, UniProt P30575); test: Flow cytometry of C. albicans, FITC binding; type: cell-based, C. albicans SC 5314; conditions: 100 ug antibody, 10^5 cells, 2 hours at 37° C.
T3 construct: endogenous in cells; host or cells: C. albicans SC 5314 and clinical isolates CA6-17, CA7-26, CA7-3, CA10-50, CA7-30, CA10-65
Procedure: (§1) (A) C. albicans SC 5314 were cultured overnight and 10^5 cells were added to each tube with 2 ml YPD medium. Experiment antibodies were added to each tube (1) Anti-CaENO1 IgY (100 ug) (2) Control scFv (100 ug) (3) scFv CaS1 (100 ug) (4) PBS, and cultured 2 hours at 37° C. in an incubator. Goat anti-chicken light chain (1:1500) antibody was used as detected antibody; FITC donkey anti-goat antibody (1:1000) was used as developed antibody to detect the reaction. Propidium iodide (PI) (1 ug/ml) was used to detect cell death. (B) Quantification of flow cytometry result in the panel A (*, p<0.05;**, p<0.01). Flow cytometry is represented as mean±SD of the duplicated experiment.
(§2) Anti-CaENO1 IgY, scFv CaS1 and control scFv were contacted with C. albicans and then subjected to flow cytometry assay. Anti-CaENO1 IgY, scFv CaS1 and control scFv show 89.7+/−2.8%, 46.64+/−3.1% and 23+/−2.3% FITC fluorescence reaction (FIG. 7A), representing that the antibody can bind to alpha-enolase on the surface of C. albicans.

C. albicans = test: Flow cytometry of C. albicans, propidium iodide cell death; type: cell-based, C. albicans SC 5314; conditions: 100 ug antibody, 10^5 cells, 2 hours at 37° C.
Procedure: as §1, §2

[2] = molecular target: T4, binding of surface ENO1 of C. albicans to plasminogen (Candida albicans, UniProt P30575); test: Fibrin matrix-gel degradation analysis with C. albicans cells; type: cell-based; conditions: for Binding of CaENO1 to plasminogen: fibrin matrix-gel degradation analysis, C. albicans cells
T4 construct: endogenous in cells; host or cells: C. albicans cells
Procedure: The ability of CaS1 scFv to block the binding of CaENO1 with plasminogen was evaluated by fibrin matrix-gel degradation analysis. Various samples containing C. albicans only (1), C. albicans+1 ug of plasminogen (2) or C. albicans+10 ug of plasminogen (3) were spotted on the plate. Similar experiments were carried out except C. albicans were mixed first with 10 ug (4) or 100 ug (5) of CaS1 scFv, followed by the addition of 10 ug of plasminogen. C. albicans+CaS1 scFv without plasminogen (6) were spotted as a negative control.
The matrix gel was prepared for fibrinolysis activity detection^33. C. albicans (10^6 cells) were washed and incubated with or without CaS1scFv ([…]) at 37° C. for 1 hr. After incubation, cells were washed and incubated with plasminogen (10 μg) for 30 min. The mixtures were washed with PBS to remove free plasminogen. The resulting cell pellets were placed in a matrix gel that contained 1.25% low-melting-temperature agarose, thrombin (0.05 U/ml, Sigma) and fibrinogen (2 mg/ml, Sigma). The gel was incubated in a humidified chamber at 37° C. for 10-14 hrs until the appearance of clear spots indicated the presence of fibrinolysis activity.
It is well known that surface ENO1 act as a plasminogen receptor 32, binding to plasminogen will activate it to plasmin and leading to the degradation of the fibrinogen (extracellular matrix) containing in the gel. We performed matrix-gel studies to test the possible biological significance of CaENO1-plasminogen association and the effect of CaS1 scFv on this binding was observed.
The inhibition of the degradation of the fibrinogen in the gel is obvious.

[3] = molecular target: T5, CaENO1 binding to plasminogen (Candida albicans, UniProt P30575); test: Fibrin matrix-gel degradation with CaENO1 on Ni sepharose; type: biochemical, C. albicans; conditions: antibody 100 ug; for Binding of CaENO1 to plasminogen: CaENO1 on Ni sepharose
T5 construct: using full-length CaENO1 (1323 bp) as template; made in house; host or cells: E. coli BL21
Procedure: Each experimental group of CaENO1 with CaS1 scFv were dropped onto gel and incubated at room temperature for 2 days to observe gel degrade result. (1) plasminogen (1 ug/ul) only. (2) CaENO1 on Ni Sepharose™ (10 ug). (3) CaENO1 on Sepharose™ (10 ug) with plasminogen (20 ug).
Each experimental group of CaENO1 with CaS1 scFv were dropped onto gel and incubated at room temperature for 2 days to observe gel degrade result an the results are shown in FIG. 15.

T4 sequence (P30575 whole entry): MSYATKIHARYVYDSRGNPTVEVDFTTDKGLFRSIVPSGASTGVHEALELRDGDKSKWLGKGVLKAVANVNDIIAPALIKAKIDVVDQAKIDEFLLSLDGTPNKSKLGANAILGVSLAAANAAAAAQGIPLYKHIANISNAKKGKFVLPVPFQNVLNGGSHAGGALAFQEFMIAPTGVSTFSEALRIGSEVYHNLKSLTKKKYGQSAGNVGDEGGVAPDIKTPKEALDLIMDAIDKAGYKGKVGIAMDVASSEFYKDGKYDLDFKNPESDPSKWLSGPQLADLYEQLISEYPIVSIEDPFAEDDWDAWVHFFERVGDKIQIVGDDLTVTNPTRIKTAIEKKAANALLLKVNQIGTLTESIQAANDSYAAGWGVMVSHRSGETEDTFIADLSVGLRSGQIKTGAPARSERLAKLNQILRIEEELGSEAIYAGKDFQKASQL
T5 sequence (P30575 whole entry): as above
T1 sequence (P30575 whole entry): as above
T2 sequence (P06733 whole entry): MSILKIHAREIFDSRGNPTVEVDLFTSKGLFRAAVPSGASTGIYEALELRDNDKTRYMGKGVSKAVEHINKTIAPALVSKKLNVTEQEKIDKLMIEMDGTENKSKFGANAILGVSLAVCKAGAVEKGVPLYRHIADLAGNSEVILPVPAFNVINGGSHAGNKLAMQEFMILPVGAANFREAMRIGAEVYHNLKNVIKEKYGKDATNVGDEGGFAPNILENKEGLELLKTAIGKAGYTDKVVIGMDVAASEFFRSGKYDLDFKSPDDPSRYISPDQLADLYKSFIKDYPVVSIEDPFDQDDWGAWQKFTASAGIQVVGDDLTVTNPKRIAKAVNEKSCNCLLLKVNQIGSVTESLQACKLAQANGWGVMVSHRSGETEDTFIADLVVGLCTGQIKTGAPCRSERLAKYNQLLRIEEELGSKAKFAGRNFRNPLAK
T3 sequence (P30575 whole entry): as the sequence (P30575 whole entry) above

B1: CaS1 scFv: anti-CaENO1 scFv monoclonal antibody from chicken phage library; light chain SEQ ID NO:11, heavy chain SEQ ID NO:12 (antibody, V domains shown)
VH: TVTLDESGGGLQTPRGALSLVCKASGFTFIDYGMQWVRQAPGKGLEWVAGIGSSGSSTNYGAAVKGRATISRDDGQSTVRLQLNNLRAEDTGTYYCAKSAGGYCVNGAGCNGGSIDAWGHGTEVIVSS
VL: ALTQPSSVSANLGGTVKITCSGGSGSYGWYQQKSPGSAPVTVIYSNNQRPSNIPSRFSGSPSGSTGTLTITGVQADDEAVYFCGSRDSSYVGVFGAGTTLTVL
modifications: scFv linker; amino acid sequence comprised in a heavy chain of an anti-CaENO1 scFv monoclonal antibody (CaS1); amino acid sequence comprised in a light chain of an anti-CaENO1 scFv monoclonal antibody (CaS1)
- KD by competitive ELISA (CaENO1): 4.45 µg/mL
- Kd (CaENO1; read-out: KD by competitive ELISA): 89 nM
- Binding to purified hENO1 (Western blot) (hENO1): very little; also recorded: weak cross reactivity
- FITC fluorescence reaction [1]: 46.64+/−3.1%
- mortality rate of C. albicans (propidium iodide) (C. albicans): 37+/−0.8%
- Fibrinolytic activity of C. albicans with plasminogen ([2]; C. albicans pre-incubated with 10 ug or 100 ug, then 10 ug plasminogen): significantly inhibited
- Fibrinolysis activity in the absence of plasminogen ([2]; C. albicans+CaS1 scFv without plasminogen): no fibrinolysis activity
- Binding of CaENO1 to plasminogen [2]: significantly reduced
- Binding of CaENO1 to plasminogen ([2]; listed as CaS1): significantly inhibited
- Fibrinolytic activity of CaENO1 on Sepharose with plasminogen ([3]; CaENO1 10 ug, plasminogen 20 ug, 2 days): no fibrinolytic activity
- Binding of CaENO1 to plasminogen [3]: significantly reduced
- Binding of CaENO1 to plasminogen ([3]; listed as CaS1): inhibits
